In assay [1] the target is T1, human IL-33 (human, UniProt O95760 112-270, limits assumed).
T1 sequence (looked up): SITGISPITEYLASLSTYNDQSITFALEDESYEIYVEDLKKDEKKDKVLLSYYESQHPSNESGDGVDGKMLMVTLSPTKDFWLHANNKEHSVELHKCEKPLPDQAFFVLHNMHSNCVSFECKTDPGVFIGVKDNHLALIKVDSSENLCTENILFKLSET
Description: cell-based or functional assay.

Assay [2] concerns the target T1, human IL-33. Put plainly: KinExA, solution equilibrium, beads coated with histidine-tagged human IL-33. On the procedure:
(§1) The ability of the APE4909 antibody described in Example 2 to interact with IL-33 was analyzed biophysically using a KINEXA™ 3200 biosensor platform from Sapidyne Instruments (Boise, Id.). Binding experiments for human and cynomolgus IL-33 (cynolL-33) were conducted as described below and were run twice independently. Conditions for the first experiment are shown non-parenthetically, while conditions for the second experiment are provided parenthetically.
Solid phase was prepared using azlactone-coated beads coated using a 50 μg/mL solution of histidine-tagged human IL-33. Binding experiments were performed in 1×PBS pH 7.4, 0.1% BSA. The APE4909 antibody at 10 pM (or 20 pM) final concentration was incubated with IL-33 at 200 pM to 3.4 fM (or 400 pM to 6.7 fM) final concentrations for 3 (or 4) days at 4° C. 5 mL (or 10 mL) of each mixture was applied to the beads coated with IL-33 at a rate of 0.25 mL/min for 1200 seconds (or 2400 seconds). Free antibody was detected with an ALEXAFLUOR™ 647-(Life Technologies, Carlsbad, Calif.) labeled donkey anti-human antibody. All data fit using standard KINEXA™ software.

A further assay has as its target T2, cynomolgus IL-33 (cynomolgus, UniProt A0A2K5W3I1 112-269).
T2 construct: also called cynoIL-33; cIL-33
T2 sequence: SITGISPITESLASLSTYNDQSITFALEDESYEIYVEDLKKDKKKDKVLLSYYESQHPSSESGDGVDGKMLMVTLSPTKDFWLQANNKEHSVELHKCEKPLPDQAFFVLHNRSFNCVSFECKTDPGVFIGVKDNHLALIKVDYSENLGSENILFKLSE
Description: KinExA solution-phase equilibrium titration: APE4909 at a fixed concentration incubated with cynomolgus IL-33 as titrant, free antibody captured on cIL-33-coated beads. The method, then: as §1
Solid phase was prepared using azlactone-coated beads coated using a 50 μg/mL solution of histidine-tagged human IL-33. Binding experiments were performed in 1×PBS pH 7.4, 0.1% BSA. The APE4909 antibody at 10 pM (or 20 pM) final concentration was incubated with IL-33 at 200 pM to 3.4 fM (or 400 pM to 6.7 fM) final concentrations for 3 (or 4) days at 4° C. […] Free antibody was detected with an ALEXAFLUOR™ 647-(Life Technologies, Carlsbad, Calif.) labeled donkey anti-human antibody. […]
Experiments were performed as described above for human IL-33, except that the APE4909 antibody at 20 pM and 100 pM final concentration was incubated with cIL-33 at 3 nM to 315 fM final concentrations for 24 hours at 4° C. […] Free antibody was detected with an ALEXAFLUOR™ 647-(Life Technologies, Carlsbad, Calif.) labeled donkey anti-human antibody. […]

Consider two molecules from patent US20180346562A1 (ANAPTYSBIO, published 2018).

In the assay with human IL-33 [1], “monomeric human ST2 protein (APE3906) (from UniProt Q01638 19-328) (receptor)” registered an IC50 of inhibition of IL-33-mediated release of IL-5 in primary human basophils of 20 nM.

B1: APE4909 antibody (antibody, V domains shown)
VH: QVQLMQSGAEVKKPGASVKVSCKASGYTFTSYWMHWVRQAPGQGLEWMGTIYPRNSNTDYNQKFKARVTMTRDTSTSTVYMELSSLRSEDTAVYYCARPLYYYLTSPPTLFWGQGTLVTVSS
VL: DIQLTQSPSFLSASVGDRVTITCKASQDVGTAVAWYQQKPGKAPKLLIYWASTRHTGVPSRFSGSGSGTEFTLTISSLQPEDFATYYCQQAKTYPFTFGSGTKLEIKR
notes: the claims treat these entries as variable regions; It was detected with an anti-human antibody; also called APE04909; APE4909.02 (lot suffix)
In the assay with human IL-33 [2], B1 showed a Kd of 0.001 nM. Further, the Kd with cynomolgus IL-33 is 0.035 nM. In addition, in the assay with human IL-33 [1], the “IC50 of inhibition of IL-33-mediated release of IL-5 in primary human basophils” value was 2.2 nM and the “IC50 of inhibition of IL-33-mediated release of IL-9 from primary human basophils” value was 3 nM.
